Source: patent publication US20210061922A1 (published 2021)

Target: CD16a (UniProt P08637 17-208)
Experiment: SPR

CD16a, sequence (P08637 17-208): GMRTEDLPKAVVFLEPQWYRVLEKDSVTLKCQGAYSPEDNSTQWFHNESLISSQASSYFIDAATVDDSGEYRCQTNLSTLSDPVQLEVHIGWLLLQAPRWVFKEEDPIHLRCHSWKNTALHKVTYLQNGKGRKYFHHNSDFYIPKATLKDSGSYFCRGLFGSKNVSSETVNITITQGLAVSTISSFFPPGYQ

Kd: 2.6 nM
B1: Anti-CD16 nanobody (VHH)
VHH: EVQLTESGGEDVQAGGSLRLSCSASGLTFSSYNMGWFRRAPGKEREFVASITWSGRDTFYADSVKGRFTISRDNAKNTVYLQMSSLKPEDTATYYCAANPWPVAAPRSGTYWGEGTQVTV
